Experimental data from patent publication US20180185504A1 (Regeneron, published 2018).

T1: monkey macaca fascicularis PRLR construct with an HA tag on HEK293/mfPRLR cells (macaca fascicularis, UniProt A0A2K5WXK1 25-619)
T1 construct: stably transfected into HEK293
T1 sequence: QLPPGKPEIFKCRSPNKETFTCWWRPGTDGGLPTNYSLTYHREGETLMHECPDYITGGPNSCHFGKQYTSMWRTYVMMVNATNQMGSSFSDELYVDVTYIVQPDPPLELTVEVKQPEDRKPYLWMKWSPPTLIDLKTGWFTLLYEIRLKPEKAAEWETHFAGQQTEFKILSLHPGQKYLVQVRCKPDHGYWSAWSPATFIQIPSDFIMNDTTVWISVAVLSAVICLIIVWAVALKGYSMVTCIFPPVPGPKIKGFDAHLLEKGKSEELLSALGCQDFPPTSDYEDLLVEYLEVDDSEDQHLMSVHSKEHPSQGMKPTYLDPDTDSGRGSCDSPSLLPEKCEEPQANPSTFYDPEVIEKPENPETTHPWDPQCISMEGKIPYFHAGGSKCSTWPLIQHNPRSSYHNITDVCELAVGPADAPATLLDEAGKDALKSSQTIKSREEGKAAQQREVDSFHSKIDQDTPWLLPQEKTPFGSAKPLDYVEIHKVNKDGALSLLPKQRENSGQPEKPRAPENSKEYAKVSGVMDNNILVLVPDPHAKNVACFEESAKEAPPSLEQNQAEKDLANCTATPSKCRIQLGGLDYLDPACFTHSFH

T2: human PRLR on cells (endogenous on T47D, T47D#11, MCF7); introduced in HEK293/hPRLR/STAT5-Luc, 293/hPRLR, … (human, UniProt P16471 25-622)
T2 construct: no tag is stated for these lines; also called prolactin receptor
T2 sequence: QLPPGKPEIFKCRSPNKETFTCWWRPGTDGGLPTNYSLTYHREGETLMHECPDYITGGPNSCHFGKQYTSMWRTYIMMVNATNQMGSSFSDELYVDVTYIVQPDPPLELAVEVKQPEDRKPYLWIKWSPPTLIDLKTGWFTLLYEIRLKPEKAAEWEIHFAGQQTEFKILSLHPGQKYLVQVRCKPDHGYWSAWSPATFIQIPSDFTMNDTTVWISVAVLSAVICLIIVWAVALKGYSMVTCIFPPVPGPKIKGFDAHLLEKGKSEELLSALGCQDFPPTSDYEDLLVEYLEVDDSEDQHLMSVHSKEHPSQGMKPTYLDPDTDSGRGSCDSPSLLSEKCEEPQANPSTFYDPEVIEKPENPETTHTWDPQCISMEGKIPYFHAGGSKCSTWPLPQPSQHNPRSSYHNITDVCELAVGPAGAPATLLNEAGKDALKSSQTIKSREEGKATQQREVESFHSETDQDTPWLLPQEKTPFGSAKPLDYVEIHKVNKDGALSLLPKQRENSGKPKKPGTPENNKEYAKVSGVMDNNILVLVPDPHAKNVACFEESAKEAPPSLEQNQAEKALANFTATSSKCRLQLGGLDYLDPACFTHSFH

T3: human PRLR construct with an HA tag on HEK293/hPRLR cells (human, UniProt P16471 25-622)
T3 sequence: T2 sequence

B1: H1H6790P (antibody, human IgG1, V domains shown)
VH: EVQLVESGGGLVQPGGSLRLSCAASGFTFSSYAMTWVRQAPGKGLEWVSAITGSVGNTYYADSVKGRFTISRDNSKNTLYLQMNSLGAEDTAEYYCAKGAGMTTNWYLDLWGRGTLVTVSS
VL: DIVMTQSPDSLAVSLGARATINCKSSQSVLYSSNNQNYLTWYQQKPGQPPKLLIKWASTRESGVPDRFSGSGSGTDFTLTISSLQAEDVAVYYCQQYASSPYTFGQGTKLEIK
notes: human IgG1 Fc (H1H)
B2: H1H6966N (antibody, human IgG1, V domains shown)
VH: QVQLVQSGAEVQKPGASVKVSCKVSGYTLTALSIHWVRQAPGKGLEWMGNFDPGDGETIHAQKFQGRVTMTGDTSTDTAYMELSSLRSEDTAVYYCVGVTFDYWGQGTLVTVSS
VL: EIVMTQSPATLSVSPGERATLSCRASQSVASNLAWYQQKPGQAPRLLLYGASTRATGIPARFSGSGSGTEFTLTISSLQSEDFALYYCQHYNNWPLTFGGGTKVEIK
notes: also called H2M6966N
B3: H1H6774P (antibody, human IgG1, V domains shown)
VH: EVQLVESGGGLAQPGGSLRLSCVASGFTFSTYWMSWVRQAPGKGLDWVGNIKQDGSEQNYVDSVRGRFTISRDNAKNSLFLQMNSLRAEDTGVYYCATLLTKGDYWGQGTLVTVSS
VL: DIQMTQSPSSLSASVGDSVTITCRASQDISNYLDWFQQKPGKAPKSLIYAASILQGGVPSRFSGSGYGTDFTLTISSLQPEDFATYYCRQYKTYPFTFGPGTKVDIK
notes: human IgG1 Fc (H1H)
B4: H1H6797P (antibody, human IgG1, V domains shown)
VH: EVQLVESGGGLVQPGGSLRLSCIVSGFTFSGSWMSWVRQLPGKGLEWVANIKEDGSDSYYVDSVEGRFTISRDNAKSSLYLQMNSLRVDDTAVYFCARARTVPLHYWGQGTLVTVSS
VL: DIQMTQSPSTLSASVGDRVTITCRASQSINIWLAWYQQKPGKAPKLLIYRASYLESGVPSSFAGGGSGTEFTLTISSLQPDDFGTYYCQHYNSYPFTFGQGTKLEIK
notes: human IgG1 Fc (H1H)
B5: H1H6807P (antibody, V domains shown)
VH: QVQLVESGGGVVQPGRSLRLSCAASGFTFSDYNMHWVRQAPGKGLEWVAVIWYDGSNKHYADSVKGRFTISRDNSKNTLYLQMNSLRAEDTAVYYCARDGFTIFGMVLDYWGQGTLVTVSS
VL: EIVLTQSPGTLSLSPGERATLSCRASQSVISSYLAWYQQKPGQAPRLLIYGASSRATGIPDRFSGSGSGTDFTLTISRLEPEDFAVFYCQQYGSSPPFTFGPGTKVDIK
notes: human IgG1 Fc (H1H)
B6: H1H6959N2 (antibody, human IgG1, V domains shown)
VH: EVQLVESGGGLVQPGRSLRLSCAASGFTFDDYAMHWVRQAPGKGLEWVSGISWHSGIIGYADSVKGRFTISRDNAKNSLYLQMNSLRTEDAALYYCAKIGSYFYFDSWGQGTLVTVSS
VL: EIVLTQSPGTLSLSPGERATLSCRASQSVSSNYLAWYQQKPGQAPRLLIYGASSRATGIPDRFSGSGSGTDFTLTISRLEPEDFAVYYCQQFGSSGYTFGQGTNLEIK
notes: also called H2M6959N2
B7: H1H6960N (antibody, human IgG1, V domains shown)
VH: EVQLVESGGGLVKPGGSLRLSCAASGITFSSYSMNWVRQAPGKGLEWVSSISTRSSLIHYADSVKGRFTISRDNAKNSLYLQMNSLRDEDTAVYYCARWDAAAAFDYWGQGTLVIVSS
VL: DIQLTQSPSFLSASVGDRVTITCWASQGISSYLAWYQQKPGKAPKLLIYVASTLQSGVPSRFSGSGSGTEFTLTISSLQPEDFATYFCQQLNSYPLTFGGGTKVEIK
notes: also called H2M6960N
B8: H1H6804P (antibody, human IgG1, V domains shown)
VH: QVTLKESGPVLVKPTQTLSLTCTVSGFSLSDAGMGVSWIRQPPGKALEWLAHIFSNDGKSYSTSLKSRLTISKDTSKRQVVLTMTNMDPVDTATYYCARIRTGTYSLYLDYWGQGTLVTVSS
VL: DIQMTQSPSSLSASVGDRVTITCRASQSINSYLNWYQQKPGKAPKLLLYFASSLQSGVPSRFSGSGSGTDFTLTISSLQPEDFASYYCQESYSTPWTFGQGTKVEIK
notes: human IgG1 Fc (H1H)
B9: H1H6795P (antibody, human IgG1, V domains shown)
VH: QVQLVQSGAEVKKPGASVKVSCKASGYTFGTSGITWVRQAPGQGLEWMGWSSAYNGKTDYAQKFQDRVTMTTDTSTTTGYMEMRSLTSDDTAVYYCTTVVRRPFDFWGQGTLVTVSS
VL: DIQMTQSPSSLSASVGDRVTITCRASQDINNFLAWFQQKPGKAPKSLIYAASSLQSGVPSKFSGGGSGTDFALTISSLQPEDFATYYCQQYSSYPITFGQGTRLEIK
notes: human IgG1 Fc (H1H)
B10: H1H6783P (antibody, human IgG1, V domains shown)
VH: QVQLQQSGPGLVKPSQTLSLTCAISGDSVSSNTFAWNWIRQSPSRGLEWLGRTYYRSKWYIDYAESVKSRITITPDTSKNQFSLQLNSVTPEDTALYYCAGGYTYAPRGAFDIWGQGTMVTVSS
VL: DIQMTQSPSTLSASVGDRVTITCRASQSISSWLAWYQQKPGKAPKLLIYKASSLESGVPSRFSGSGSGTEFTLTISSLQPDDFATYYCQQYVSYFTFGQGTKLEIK
notes: human IgG1 Fc (H1H)
B11: H1H6792P (antibody, human IgG1, V domains shown)
VH: EVQLVESGGGLVQPGRSLRLSCAASGFTLDDHAVHWVRQAPGKGLEWVSGISWNSVYIDYADSVKGRFTIFRDNAKNSLYLQMNSLRAEDTAFYYCARDIEGARDYWGQGTLVTVSS
VL: DIQMTQSPSSLSASVGDRVTITCRASQGIRNDLGWYQQKPGKAPKRLIYAASSLQSGVPSRFSGSGYGTEFTLTISSLQPEDFAPYYCLQHNSYPLTFGGGTKVEIK
notes: human IgG1 Fc (H1H)
B12: H1H6953N (antibody, human IgG1, V domains shown)
VH: EVQLLESGGGLVQPGGTLRLSCAASGFTFSAYAMSWVRQAPGKGLEWVSSINVRAGDTYYADSVKGRFTISRDNSKNTLFLLMNSLRAEDTAAYYCAKARYSSNWGFDFWGQGTLVTVSS
VL: DIVMTQSPDSLTVSLGARTTINCQSSQTILHSSNNHNYLAWYQQKPGLPPKLLIYWSSTRESGVPDRFSGSGSGTDFTLTISSLQAEDVAIYYCQQYSNTPYTFGQGTKLEIN
notes: also called H1M6953N

What follows are binders tested against T1, monkey macaca fascicularis PRLR … (assay: FACS on HEK293/mfPRLR cells).

Binder	FACS Cell Binding (Fold Above Background)
B1	24 fold
B2	18 fold
B3	29 fold
B4	25 fold
B5	27 fold
B6	11 fold
B7	23 fold
B8	29 fold
B9	22 fold
B10	27 fold
B11	28 fold
B12	29 fold

The binders below were run against T2, human PRLR on cells (endogenous on …) (assay: imaging of alexa488 intensity on T47D cells).
Description: Briefly, 20,000 T47D cells were seeded in collagen coated 96 well plates. […] Cells were then incubated with alexa488 conjugated anti-hFc Fab secondary antibodies for 30 minutes on ice followed by two additional PBS washes. Antibodies were allowed to internalize for 1 h at 37° C. in internalization buffer (PBS+2% FBS) or remained at 4° C. Cells were fixed in 4% formaldehyde, nuclei were stained with DRAQ5 (Cell signaling), and images were acquired on the ImageXpress micro XL (Molecular Devices). Whole cell alexa488 intensity at 37° C. (Binding) and the alexa488 intensity in the intracellular vesicles at 37° C. (Internalization) were determined via Columbus image analysis software (PerkinElmer).

Binder	% Total Binding relative to Control I
B1	123%
B2	111%
B3	174%
B4	151%
B5	153%
B6	2%
B7	89.7%
B8	150%
B9	123%
B10	166%
B11	111%
B12	164%

Each binder was assayed against T3, human PRLR construct with an HA tag on … (assay: FACS on HEK293/hPRLR cells).

Binder	FACS Cell Binding (Fold Above Background)
B1	37 fold
B2	29 fold
B3	1 fold
B4	1 fold
B5	32 fold
B6	6 fold
B7	29 fold
B8	1 fold
B9	1 fold
B10	37 fold
B11	37 fold
B12	37 fold
